Results on four molecules are retold here after article PMC3823767, “The ATP-Mediated Regulation of KaiB-KaiC Interaction in the Cyanobacterial Circadian Clock” (PLoS ONE, 2013).

The labels stand for the following.
T1: KaiC_(K294H) (Thermosynechococcus elongatus BP-1 …, UniProt Q79V60 1-518, K294H)
T1 construct: KaiC, Thermosynechococcus elongatus BP-1, 518 residues, K294H in Walker's motif A of the C-terminal domain; Used as hexamer formed with Mg-ATP; also called KaiC_(K294H)^6mer
T1 sequence (looked up): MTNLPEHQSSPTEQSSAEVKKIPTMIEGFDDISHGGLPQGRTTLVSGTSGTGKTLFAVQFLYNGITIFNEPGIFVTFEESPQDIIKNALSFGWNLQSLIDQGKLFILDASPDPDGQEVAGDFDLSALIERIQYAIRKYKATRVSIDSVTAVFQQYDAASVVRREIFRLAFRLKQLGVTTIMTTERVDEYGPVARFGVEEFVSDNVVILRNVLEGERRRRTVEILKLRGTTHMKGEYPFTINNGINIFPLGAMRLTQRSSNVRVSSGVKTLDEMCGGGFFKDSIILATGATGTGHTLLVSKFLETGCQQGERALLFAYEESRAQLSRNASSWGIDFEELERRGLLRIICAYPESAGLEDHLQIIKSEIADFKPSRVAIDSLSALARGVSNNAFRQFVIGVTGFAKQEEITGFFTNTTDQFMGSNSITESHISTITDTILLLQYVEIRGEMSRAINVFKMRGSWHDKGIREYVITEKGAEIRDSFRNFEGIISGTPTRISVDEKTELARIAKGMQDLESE

T2: wild-type KaiC (KaiCWT) (Thermosynechococcus elongatus BP-1 …, UniProt Q79V60 1-518, phosphorylation level of the KaiCWT preparations about 30 % (phosphorylation sites Ser431 and Thr432))
T2 construct: KaiC, Thermosynechococcus elongatus BP-1, wild type, subunit of 518 amino acid residues; Used as hexamer formed with Mg-ATP; also called KaiCWT^6mer
T2 sequence (looked up): T1 sequence (looked up) with H294K

T3: KaiC_(K53H/DD) (Thermosynechococcus elongatus BP-1 …, UniProt Q79V60 1-518, K53H | S431D | T432D)
T3 construct: KaiC, Thermosynechococcus elongatus BP-1, 518 residues, K53H in the N-terminal Walker's motif A plus the DD mutation; Used as monomer (no ATP) and as hexamer (with Mg-ATP); the assay tells which; also called KaiC_(K53H/DD)^1mer; KaiC_(K53H/DD)^6mer
T3 sequence (looked up): T1 sequence (looked up) with K53H, H294K, S431D, T432D

T4: KaiC_(K294H/DD) (Thermosynechococcus elongatus BP-1 …, UniProt Q79V60 1-518, K294H | S431D | T432D)
T4 construct: KaiC, Thermosynechococcus elongatus BP-1, 518 residues, K294H in Walker's motif A (C-terminal ATPase motif mutation by the results) plus the DD mutation; Used as monomer (no ATP) and as hexamer (with Mg-ATP); the assay tells which; also called KaiC_(K294H/DD)^1mer; KaiC_(K294H/DD)^6mer
T4 sequence (looked up): T1 sequence (looked up) with S431D, T432D

B1: N-terminal domain mutant protein of KaiC, residues 1 to 268 (KaiCN) (domain or fragment, UniProt Q79V60 1-268, looked up)
chain: MTNLPEHQSSPTEQSSAEVKKIPTMIEGFDDISHGGLPQGRTTLVSGTSGTGKTLFAVQFLYNGITIFNEPGIFVTFEESPQDIIKNALSFGWNLQSLIDQGKLFILDASPDPDGQEVAGDFDLSALIERIQYAIRKYKATRVSIDSVTAVFQQYDAASVVRREIFRLAFRLKQLGVTTIMTTERVDEYGPVARFGVEEFVSDNVVILRNVLEGERRRRTVEILKLRGTTHMKGEYPFTINNGINIFPLGAMRLTQRSSNVRVSSGVK
notes: KaiC, Thermosynechococcus elongatus BP-1, N-terminal domain, residues 1-268; Used as monomer (no ATP) and as hexamer (with ATP or Mg-ATP); the assay tells which; also called KaiCN^1mer; KaiCN^6mer
B2: wild-type KaiB (KaiBWT) (natural protein, UniProt Q79V61 1-108, looked up)
chain: MAPLRKTYVLKLYVAGNTPNSVRALKTLNNILEKEFKGVYALKVIDVLKNPQLAEEDKILATPTLAKVLPPPVRRIIGDLSNREKVLIGLDLLYEEIGDQAEDDLGLE
notes: KaiB, Thermosynechococcus elongatus BP-1, wild type, subunit of 108 amino acid residues; also called KaiBWT^4mer; KaiB^4mer
B3: KaiC_(S431D&T432D) (KaiCDD) (natural protein, UniProt Q79V60 1-518, looked up)
chain: T1 sequence (looked up) with H294K, S431D, T432D
notes: KaiC, Thermosynechococcus elongatus BP-1, subunit of 518 amino acid residues, aspartate at the two phosphorylation sites; Used as monomer (KaiC^1mer, no ATP) and as hexamer (KaiC^6mer; with Mg-ATP, ATP, Mg-AMPPNP, Mg-ATPγS or Mg-ADP-AlFx); the assay tells which; also called KaiCDD^1mer; KaiCDD^6mer
B4: mutant KaiB with a C-terminal deletion of residues 95 to 108 (KaiB1-94) (domain or fragment, UniProt Q79V61 1-94, looked up)
chain: MAPLRKTYVLKLYVAGNTPNSVRALKTLNNILEKEFKGVYALKVIDVLKNPQLAEEDKILATPTLAKVLPPPVRRIIGDLSNREKVLIGLDLLY
notes: KaiB, Thermosynechococcus elongatus BP-1, residues 1-94 (C-terminal residues 95-108 deleted)

Numbering of substitutions follows the chain as printed. Numbers in names are those of the source.

Series [1] concerns the molecule itself. The series is described as follows: native gel or EMSA; 5 μM monomeric KaiC incubated with 1 mM ATP with or without 5 mM MgCl2 at 4 °C; monomer to hexamer.
Series [2] addresses B3. The experiment in a line: native gel or EMSA; KaiBWT (1 μM) or KaiB1-94 (2 μM) with 1 μM KaiCDD hexamer in reaction buffer (20 mM HEPES-NaOH pH 7.5, 150 mM NaCl) with Mg-ATP at 40 °C, time course; 10 % native gel, CBB, densitometry. Conditions: both partners purified.
The next series addresses T1, KaiC_(K294H). The series is described as follows: native gel or EMSA; KaiC hexamer (formed with Mg-ATP, 1 μM) with 5 μM KaiB1-94 in the presence of Mg-ATP at 4 °C; native PAGE, complex bands checked by second-dimension SDS-PAGE. Conditions: both partners purified.
In a further series the target is T2, wild-type KaiC (KaiCWT). The series is described as above. Conditions: both partners purified.
A further series deals with T3, KaiC_(K53H/DD). The experiment in a line: native gel or EMSA; monomeric KaiC (5 μM; 1 μM for the concentration series) with KaiB1-94 or 7.5 μM KaiBWT in reaction buffer without ATP, 4 °C, 6 h (KaiC_(C/DD) also at 25 °C); 10 % native gel, CBB, densitometry. As to conditions: both partners purified.
Series [3] deals with B1. The description is as above. Conditions: both partners purified.
In another series the target is T4, KaiC_(K294H/DD). The description is as above. Conditions: both partners purified.
The target of series [4] is B3. The description is as above. As to conditions: both partners purified.

For B1, in series [1], the “stoichiometry N” value came to 6.

On to B2, for which, in series [2], the binding result was “binds”.

Consider B3, for which, in series [1], the “stoichiometry N” value was 6.

On to B4, for which the “t1/2 of complex formation” value in series [2] was 1.2 h; in series [4], approximately 2.5 h. Moreover, the binding result (in the series with KaiC_(K294H); in the series with wild-type KaiC (KaiCWT); with KaiC_(K53H/DD); in series [3]; with KaiC_(K294H/DD)) was “binds” throughout. This molecule also showed a half-maximal effective concentration (EC50) in series [4] of approximately 700 nM.
